This note sets out measurements from patent US8003609B2, “Method for ameliorating pain by modification of NMDA receptors through inhibition of Src” (The Hospital for Sick Children, priority 2004, dated 2011).

The test deals with T1, ND2.1-GST (Homo sapiens, UniProt P03891, A265T).
T1 construct: made in house; host or cells: bacteria
Briefly: in vitro binding of biotinylated Src peptides to ND2.1-GST (blot / dot blot). The note with it: biotinylated peptide, streptavidin-HRP detection. On the procedure:
Src, Fyn, and ND2 recombinant proteins were prepared. The cDNAs encoding the SH3 and SH2 domains of mouse n-Src and Fyn were PCR subcloned, ligated in frame into pGEX4T-1 (Amersham Pharmacia Biotech, Baie d'Urfé, Québec), and sequenced. These plasmids, as well as plasmids encoding the unique domains of Src and Fyn in pGEX2T'6, were transformed into BL21 bacteria, and GST fusion proteins were purified by glutathione affinity chromatography. To create the ND2.1, ND2.2, and ND2.3 GST fusion proteins, cDNAs encoding amino acids 239-321 (ND2.1-GST; SEQ ID NO:7), amino acids 189-238 (ND2.2-GST; SEQ ID NO:11), and amino acids 1-188 (ND2.3-GST; SEQ ID NO:13) of human ND2 were PCR subcloned and ligated into pGEX4T-1 (the nucleotide sequence encoding ND2 is SEQ ID NO:8 and the amino acid sequence is SEQ ID NO:9; the nucleotide sequences encoding ND2.1; ND2.2 and ND2.3 are SEQ ID NOS:6, 10 and 12, respectively). Using PCR-based single nucleotide mutagenesis, all cDNAs encoding ND2 fusion proteins were corrected for differences between mitochondrial and nuclear codons to prevent premature translation termination and protein truncation. All constructs were then confirmed by sequencing. The plasmids were transformed into bacteria, and GST fusion proteins were purified by glutathione affinity chromatography.
Src40-58 and scrambled Src peptides were biotinylated by incubating with Sulfo-NHS-Biotin (Pierce Chemical Co., Rockford, Ill.) for 30 minutes at room temperature (SEQ ID NO:4, Src protein). […] Bound probe was then detected on film using an ECL kit.
To detect the binding of ND2.1-GST with Src peptides, the ND2.1-GST fusion protein was purified on glutathione SEPHAROSE. […] Bound probe was then detected on film using an ECL kit (Amersham Pharmacia Biotech, Baie d'Urfé, Québec).
Src40-58, Src40-49, Src49-58, scrambled Src40-58, TAT-Src40-49, and scrambled TAT-Src40-49 peptides were biotinylated by incubating with Sulfo-NHS-Biotin (Pierce Chemical Co., Rockford, Ill.) for 30 minutes at room temperature. […] Bound probe was then detected on film using an ECL kit.

T1 sequence (P03891 239-318 A265T): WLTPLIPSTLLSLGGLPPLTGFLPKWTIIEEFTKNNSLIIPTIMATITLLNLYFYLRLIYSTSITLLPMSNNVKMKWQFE

In the case of “Src40-58: peptide comprising amino acid residues 40-58 of SEQ ID NO:4 (Src) (PASADGHRGPSAAFAPAAA; listed as Homo sapiens)”, the “binding to ND2.1-GST” value is given as “bind directly”.
